Drawing on publication PMC10998906, this text covers stoichiometry N for one substance.

The target in test [1] is HA GCN4 (NL03 HA fused to a GCN4 trimerization domain) (influenza A virus A/Netherlands/213/2003(H3N2)). Nature of the test: negative-stain EM.
Test [2] shares this target. Briefly: SEC.

For the substance “HA GCN4 (NL03 HA fused to a GCN4 trimerization domain) (domain or fragment)”, the stoichiometry N in test [1] and in test [2] was 3 in each case.
